These results are taken from article PMC3149064, “Differential Calcium Signaling by Cone Specific Guanylate Cyclase-Activating Proteins from the Zebrafish Retina” (PLoS ONE, 2011).

The target of data set [1] is zebrafish guanylate cyclase-activating protein 1 (zebrafish (Danio rerio)). In words: SEC; analytical size exclusion chromatography (HPLC) on a BioSep-SEC S2000 column with molecular mass standards, 20 µg purified protein, run in the presence of 0.5 mM EGTA (Ca2+-free); dimer to monomers. (In general: SEC sorts molecules by how far they enter the pores of the column.)
Data set [2] deals with the molecule itself. The description is as above.

The term stoichiometry N denotes a count of units in the complex or per binding partner.

In the case of “zebrafish guanylate cyclase-activating protein 1 (natural protein)”, in data set [1], the percent dimers turned out to be 18% and the stoichiometry N came out at 2.

B1: zebrafish guanylate cyclase-activating protein 7 (natural protein, zebrafish (Danio rerio), UniProt Q5MAC7 1-187, looked up)
chain: MGQNQSDEEEEEVELTEIQPLYTRFMKVCPSGALHLHEFRRIFGVQSSSEEEALYMETIFKSFDTNRDNVIDFMEFVAAVHLVLRGNLEDRLKWSFKVYDRDENGKLDRQEVIHVIRILCKLKKNRINMTPVEICDRIFELLDENNDGQISLSEFLEGAEKDAWIMDLLKLDTNARVWFRDNLGKKT
notes: Non-myristoylated; also called zGCAP7; source: anion exchange, ammonium sulfate precipitation, SEC
Turning to B1, the “stoichiometry N” value in data set [2] stood at 2.
